{
  "source": "paper PMC7972811",
  "key": {"[1]": {"target": "SARS-CoV-2 spike S2P (ectodomain of the SARS-CoV-2 S trimer) (SARS-CoV-2, ancestral (P0DTC2 sequence))"}, "[2]": {"target": "SARS-CoV-2 spike S2P (ectodomain of the SARS-CoV-2 S trimer) (SARS-CoV-2, ancestral (P0DTC2 sequence))", "experiment": "SPR"}},
  "data": [
    {"substance": "2-15 IgG with the paratope somatic hypermutation Y32F (light chain) reverted to germline (antibody)", "values": [
      {"measurement": "pseudovirus neutralization potency, fold reduction against 2-15 IgG", "setting": "[1]", "result": 42, "unit": "fold"},
      {"measurement": "fold reduction of binding affinity against 2-15 IgG", "setting": "[2]", "result": 12, "unit": "fold"}
    ]}
  ]
}
